Primed or numbered codes have the meaning given here. Ends that are not written are not given here. Biotin′ = not defined here
T1: Peptide 15 with C-terminal biotin (Example 13) (not fully specified; cysteine pairing not given here)
T1 peptide: GGPCNQVECHHQFT-{Biotin′}

B1: anti-mouse CTLA-4 (clone 9D9) Fab fragment (Fab, V domains shown)
VH: EAKLQESGPVLVKPGASVKMSCKASGYTFTDYYMNWVKQSHGKSLEWIGVINPYNGDTSYNQKFKGKATLTVDKSSSTAYMELNSLTSEDSAVYYCARYYGSWFAYWGQGTLITVST
VL: DIVMTQTTLSLPVSLGDQASISCRSSQSIVHSNGNTYLEWYLQKPGQSPKLLIYKVSNRFSGVPDRFSGSGSGTDFTLKISRVEAEDLGVYYCFQGSHVPYTFGGGTKLEIKR
notes: Monovalent Fab fragment of 9D9; also called mCTLA-4 Fab; a-mCTLA-4 Fab
B2: Peptide 23 (peptide)
peptide: GGHCVDMVDFYQQTCQ
modifications: cysteine pairing not given here; also: biotinylated
notes: Chemically synthesized biotinylated peptide; also called 23 (Control)
B3: Peptide 22 (peptide)
peptide: GGMCHELFYSNLNWCQ
modifications: cysteine pairing not given here; also: biotinylated
notes: chemically synthesized biotinylated peptide
B4: Peptide 24 (peptide)
peptide: GGCHNKSGLFYHYC
modifications: cysteine pairing not given here; also: biotinylated
notes: as for B3
B5: Peptide 20 (peptide)
peptide: QLFYPSTYHIID
modifications: also: biotinylated
notes: as for B3
B6: Peptide 29 (peptide)
peptide: GGLCSTFYEPQVDICY
modifications: cysteine pairing not given here; also: biotinylated
notes: as for B3

How the values were obtained:
[1] = target: T1, Peptide 15 with C-terminal biotin …; assay: ELISA, biotinylated Peptide 15 on Neutravidin, Fab titrated at pH 7.4 (Example 13)
Protocol: After washing in PBS-T, mCTLA-4 Fab diluted in either pH 7.4 Binding Buffer (50 mM sodium phosphate+150 mM NaCl+0.5% BSA+0.05% Tween-20, pH 7.4) or pH 6.0 Binding Buffer (50 mM sodium phosphate+150 mM NaCl+0.5% BSA+0.05% Tween-20, pH 6.0) was captured for 1 hour. After capture, wells were washed with either pH 7.4 Binding Buffer or pH 6.0 Binding Buffer, followed by additional 5-minute incubation with the appropriate pH Binding Buffer. Detection was performed with HRP conjugated goat anti-mouse IgG H+L (Southern Biotech.) for 1 hour at 1/2000 dilution in PBS-T+0.5% BSA followed by TMB (3-minute development) with acid stop. […] Data is expressed as mean+SD. All ELISA steps were performed at room temperature.

[2] = target: T2, PD-L1 antibody; assay: dissociation ELISA: PD-L1 antibody dilution series on immobilised biotinylated peptide, incubation at pH 6.0
T2 construct: also called anti-PD-L1

[3] = target: T2, PD-L1 antibody; assay: dissociation ELISA: PD-L1 antibody dilution series on immobilised biotinylated peptide, incubation at pH 7.2
[4] = target: T3, anti-mouse CTLA-4 antibody (clone 9D9); assay: competition ELISA: 0.3 nM anti-CTLA Ab / 30 min with peptide, then on mouse CTLA-4 (Example 11)
T3 construct: also called 9D9 antibody; anti-CTLA4
Protocol: (§1) Following this incubation the peptide-antibody complexes were transferred to mouse CTLA-4 coated and blocked ELISA plates and incubated further. Following a brief binding period the plates were washed and target bound antibody was detected by either anti-mouse Fc or anti-mouse kappa chain HRP conjugated antibodies using standard TMB-based chromogenic ELISA procedures. The effects of competition were determined by standard IC50 analysis.

[5] = target: T2, PD-L1 antibody; assay: dissociation ELISA: PD-L1 antibody dilution series on immobilised biotinylated peptide
[6] = target: T2, PD-L1 antibody; assay: dissociation ELISA: PD-L1 antibody dilution series on immobilised biotinylated peptide, incubation at pH 5.4
[7] = target: T3, anti-mouse CTLA-4 antibody (clone 9D9); assay: competition ELISA: 0.3 nM anti-CTLA Ab / 30 min with peptide, then on mouse CTLA-4 (Example 11); competitor mouse CTLA-4
Protocol: as §1

Row | Binder | EC50 (read off the curve) [1] | EC50 [2] | EC50 [3] | binding result [4] | pH 5.4: pH 7.2 EC 50 ratio [5] | pH 6.0: pH 7.2 EC 50 ratio [5] | EC50 [6] | binding result [7]
1 | B1 | ~200 nM |  |  |  |  |  |  | 
2 | B2 |  | 1.3 nM | 0.3 nM | no binding (tested: 50 uM) | 12.9 | 4.3 | 3.9 nM | 
3 | B3 |  | 0.07 nM | 0.045 nM |  | 7.8 | 1.5 | 0.35 nM | 
4 | B4 |  | 0.56 nM | 0.2 nM |  | 6.6 | 2.8 | 1.3 nM | 
5 | B5 |  | 0.21 nM | 0.13 nM |  | 6.7 | 1.7 | 0.84 nM | 
6 | GGCQIHDPHTWHLC [Peptide 19] |  |  |  |  |  |  |  | binds
7 | B6 |  | 0.49 nM | 0.23 nM |  | 6.5 | 2.1 | 1.5 nM | 
8 | GGCPSLHPQWIHVC [Peptide 16] |  |  |  |  |  |  |  | binds

Reference: patent publication US20180339043A1 (JANUX THERAPEUTICS, published 2018)
